This is an account of results in patent US20150224205A1.

The target of this experiment is T1, C1-esterase.
T1 sequence (P09871 16-688, species assumed, looked up): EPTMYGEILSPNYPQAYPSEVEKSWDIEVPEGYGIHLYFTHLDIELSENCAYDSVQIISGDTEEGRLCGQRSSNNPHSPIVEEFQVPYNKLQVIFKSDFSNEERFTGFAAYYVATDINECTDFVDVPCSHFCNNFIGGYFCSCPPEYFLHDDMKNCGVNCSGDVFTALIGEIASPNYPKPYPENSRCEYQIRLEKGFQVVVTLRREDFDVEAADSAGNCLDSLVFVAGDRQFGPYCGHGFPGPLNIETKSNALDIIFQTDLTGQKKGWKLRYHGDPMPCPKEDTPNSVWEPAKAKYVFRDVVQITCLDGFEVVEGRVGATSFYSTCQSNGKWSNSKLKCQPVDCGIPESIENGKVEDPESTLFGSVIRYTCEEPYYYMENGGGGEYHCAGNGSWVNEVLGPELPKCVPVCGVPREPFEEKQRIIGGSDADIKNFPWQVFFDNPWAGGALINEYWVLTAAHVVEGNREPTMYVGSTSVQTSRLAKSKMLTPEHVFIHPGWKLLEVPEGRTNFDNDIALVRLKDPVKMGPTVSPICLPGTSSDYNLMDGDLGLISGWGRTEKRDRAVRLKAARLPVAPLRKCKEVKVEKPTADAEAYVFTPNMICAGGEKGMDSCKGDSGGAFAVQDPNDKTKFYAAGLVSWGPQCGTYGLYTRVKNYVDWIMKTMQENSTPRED
Kind of experiment: cell-based or functional assay.

Several values for one entry are separate records, joined by “and”; a condition that tells them apart may be missing. Identical values can stand only once.

5k mPEG-BCN-C1 INH, sequence (P05155 23-500 limits assumed): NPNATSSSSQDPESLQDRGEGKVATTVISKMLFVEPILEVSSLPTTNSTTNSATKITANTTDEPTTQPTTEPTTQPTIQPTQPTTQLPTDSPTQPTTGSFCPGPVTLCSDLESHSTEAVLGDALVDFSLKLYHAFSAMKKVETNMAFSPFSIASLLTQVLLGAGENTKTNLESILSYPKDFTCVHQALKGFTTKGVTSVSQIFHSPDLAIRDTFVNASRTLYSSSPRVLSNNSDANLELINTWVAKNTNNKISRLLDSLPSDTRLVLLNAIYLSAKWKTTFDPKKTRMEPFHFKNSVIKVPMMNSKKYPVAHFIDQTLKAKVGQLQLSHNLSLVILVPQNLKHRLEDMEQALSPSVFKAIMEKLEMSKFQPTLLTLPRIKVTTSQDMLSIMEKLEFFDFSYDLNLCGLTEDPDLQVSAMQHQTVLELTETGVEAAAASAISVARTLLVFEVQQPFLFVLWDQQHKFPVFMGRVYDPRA
ALD-PEG(40 k)-C1 INH, mono PEGylated (PEG#/C1 INH = 1), sequence (P05155 23-500 limits assumed): as above
ALD-PEG2(40 k)-C1 INH, di PEGylated (PEG#/C1 INH = 2), sequence (P05155 23-500 limits assumed): as above
ALD-PEG2(40 k)-C1 INH, mono PEGylated (PEG#/C1 INH = 1), sequence (P05155 23-500 limits assumed): as above
ALD-PEG(40 k)-C1 INH, di PEGylated (PEG#/C1 INH = 2), sequence (P05155 23-500 limits assumed): as above

Turning to “ALD-PEG(40 k)-C1 INH, mono PEGylated (PEG#/C1 INH = 1) (from UniProt P05155 23-500)”, the % C1 INH Activity amounted to 67%; the Specific Activity (U/mg) is 6.1 U/mg and 6.9 U/mg.

In turn, “ALD-PEG2(40 k)-C1 INH, mono PEGylated (PEG#/C1 INH = 1) (from UniProt P05155 23-500)” displayed a % C1 INH Activity of 81% and a Specific Activity (U/mg) of 7.4 U/mg.

As for “ALD-PEG(40 k)-C1 INH, di PEGylated (PEG#/C1 INH = 2) (from UniProt P05155 23-500)”, the % C1 INH Activity turned out to be 75% and the Specific Activity (U/mg) amounted to 6.8 U/mg.

As for “5k mPEG-BCN-C1 INH (from UniProt P05155 23-500)”, the % C1 INH Activity was found to be 100%, the C1 in activity worked out at 3.7 U/mg and the Specific Activity (U/mg) amounted to 7.3 U/mg.

Take “ALD-PEG2(40 k)-C1 INH, di PEGylated (PEG#/C1 INH = 2) (from UniProt P05155 23-500)”: the % C1 INH Activity was 43% and the Specific Activity (U/mg) turned out to be 3.9 U/mg.
